# Reference: the supplement of paper PMC9112550, “Optimization of the antimicrobial peptide Bac7 by deep mutational scanning” (BMC Biology, 2022)
# Tested on: Escherichia coli TOP10
# Assay: shrunken log2 fold change of peptide-encoding DNA abundance (4.5 h post-induction vs induction); higher = less antimicrobial activity (less host growth inhibition)
# Settings: time post-induction: 4.5 h; library: site-saturation at positions 5, 18, 19, 20
# 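Also: peptides expressed intracellularly from a pBAD plasmid library in pooled LB shake-flask culture, induced with 0.3% L-arabinose, DNA abundance read by NGS, three biological replicates, DESeq2 with apeglm shrinkage.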
row,Sequence,shrunken log2 fold change
1,RRIRDRPPRLPRPRPRPNEEPRP,-0.019
2,RRIRPRPPRLPRPRPRPLYGPRP,0.0853
3,RRIRIRPPRLPRPRPRPHLHPRP,-0.784
4,RRIRGRPPRLPRPRPRPMCVPRP,0.723
5,RRIRVRPPRLPRPRPRPWGDPRP,0.148
6,RRIRFRPPRLPRPRPRPFESPRP,0.0452
7,RRIRGRPPRLPRPRPRPCLNPRP,0.165
8,RRIRARPPRLPRPRPRPTYYPRP,-0.119
9,RRIRERPPRLPRPRPRPHLIPRP,-0.207
10,RRIRQRPPRLPRPRPRPGKRPRP,0.244
11,RRIRDRPPRLPRPRPRPSRAPRP,0.156
12,RRIRRRPPRLPRPRPRPNDKPRP,-0.178
13,RRIRKRPPRLPRPRPRPGKKPRP,-0.0204
14,RRIRARPPRLPRPRPRPQFWPRP,0.148
15,RRIRCRPPRLPRPRPRPYGEPRP,-0.432
16,RRIRARPPRLPRPRPRPMHGPRP,0.311
17,RRIRQRPPRLPRPRPRPPASPRP,0.191
18,RRIRRRPPRLPRPRPRPNHEPRP,-0.0399
19,RRIRLRPPRLPRPRPRPENGPRP,-0.108
20,RRIRKRPPRLPRPRPRPSPRPRP,1.04
21,RRIRMRPPRLPRPRPRPGTNPRP,1.55
22,RRIRYRPPRLPRPRPRPDATPRP,0.104
23,RRIRARPPRLPRPRPRPFGQPRP,-0.0155
24,RRIRVRPPRLPRPRPRPYQMPRP,-0.34
25,RRIRFRPPRLPRPRPRPVRGPRP,0.576

row,Sequence,shrunken log2 fold change
1,RRIRHRPPRLPRPRPRPSWQPRP,0.0601
2,RRIRRRPPRLPRPRPRPESGPRP,0.545
3,RRIRHRPPRLPRPRPRPIQFPRP,-0.482
4,RRIRARPPRLPRPRPRPTWMPRP,0.221
5,RRIRKRPPRLPRPRPRPYMCPRP,-0.0998
6,RRIRERPPRLPRPRPRPQGRPRP,-0.0137
7,RRIRYRPPRLPRPRPRPIAEPRP,2.73
8,RRIRNRPPRLPRPRPRPCKSPRP,-0.0291
9,RRIRSRPPRLPRPRPRPERSPRP,0.206
10,RRIRYRPPRLPRPRPRPAFMPRP,-0.658
11,RRIRNRPPRLPRPRPRPQQYPRP,0.017
12,RRIRNRPPRLPRPRPRPLFPPRP,0.643
13,RRIRTRPPRLPRPRPRPKKTPRP,0.0546
14,RRIRHRPPRLPRPRPRPFWRPRP,-0.0343
15,RRIRARPPRLPRPRPRPPMVPRP,0.0322
16,RRIRTRPPRLPRPRPRPSGCPRP,-0.375
17,RRIRQRPPRLPRPRPRPKKNPRP,0.0205
18,RRIRNRPPRLPRPRPRPYNNPRP,-1.19
19,RRIRCRPPRLPRPRPRPHCYPRP,-0.135
20,RRIRYRPPRLPRPRPRPRKFPRP,-1.72
21,RRIRDRPPRLPRPRPRPDTGPRP,0.018
22,RRIRERPPRLPRPRPRPCWPPRP,0.0214
23,RRIRHRPPRLPRPRPRPAYLPRP,-0.323
24,RRIRIRPPRLPRPRPRPREVPRP,-0.118
25,RRIRHRPPRLPRPRPRPNIVPRP,-0.0257

row,Sequence,shrunken log2 fold change
1,RRIRGRPPRLPRPRPRPLVFPRP,0.455
2,RRIRERPPRLPRPRPRPQFRPRP,-0.00151
3,RRIRCRPPRLPRPRPRPCDEPRP,-0.0731
4,RRIRIRPPRLPRPRPRPIVKPRP,-0.0118
5,RRIRMRPPRLPRPRPRPAIFPRP,0.243
6,RRIRVRPPRLPRPRPRPQQTPRP,0.0227
7,RRIRFRPPRLPRPRPRPTNLPRP,-0.291
8,RRIRDRPPRLPRPRPRPNIEPRP,-0.00164
9,RRIRARPPRLPRPRPRPDPMPRP,1.02
10,RRIRQRPPRLPRPRPRPVLWPRP,0.193
11,RRIRIRPPRLPRPRPRPNDFPRP,-0.276
12,RRIRRRPPRLPRPRPRPAYNPRP,-0.28
13,RRIRGRPPRLPRPRPRPQDPPRP,0.337
14,RRIRLRPPRLPRPRPRPCQKPRP,-0.17
15,RRIRPRPPRLPRPRPRPQMTPRP,2.25
16,RRIRYRPPRLPRPRPRPKPMPRP,0.0517
17,RRIRMRPPRLPRPRPRPKHLPRP,0.142
18,RRIRIRPPRLPRPRPRPWKLPRP,-0.0644
19,RRIRMRPPRLPRPRPRPDERPRP,1.11
20,RRIRTRPPRLPRPRPRPHRVPRP,0.0498
21,RRIRARPPRLPRPRPRPVKYPRP,-0.166
22,RRIRQRPPRLPRPRPRPREDPRP,0.242
23,RRIRGRPPRLPRPRPRPLFYPRP,0.257
24,RRIRSRPPRLPRPRPRPDKYPRP,-0.845
25,RRIRQRPPRLPRPRPRPTIFPRP,-0.0347

row,Sequence,shrunken log2 fold change
1,RRIRKRPPRLPRPRPRPTTGPRP,0.733
2,RRIRDRPPRLPRPRPRPGAAPRP,1.09
3,RRIRVRPPRLPRPRPRPVNEPRP,0.0839
4,RRIRGRPPRLPRPRPRPIAGPRP,0.701
5,RRIRDRPPRLPRPRPRPVHDPRP,0.19
6,RRIRVRPPRLPRPRPRPMQGPRP,-0.0882
7,RRIRVRPPRLPRPRPRPILRPRP,0.0599
8,RRIRIRPPRLPRPRPRPDWRPRP,0.194
9,RRIRSRPPRLPRPRPRPEAGPRP,1.34
10,RRIRSRPPRLPRPRPRPNQNPRP,-0.274
11,RRIRGRPPRLPRPRPRPCDFPRP,0.102
12,RRIRCRPPRLPRPRPRPMWDPRP,-0.317
13,RRIRYRPPRLPRPRPRPRYMPRP,-0.33
14,RRIRSRPPRLPRPRPRPHGCPRP,-0.0029
15,RRIRNRPPRLPRPRPRPIKCPRP,-0.0141
16,RRIRKRPPRLPRPRPRPQSTPRP,-0.0185
17,RRIRNRPPRLPRPRPRPMVDPRP,-0.131
18,RRIRTRPPRLPRPRPRPVDQPRP,-0.123
19,RRIRMRPPRLPRPRPRPHRLPRP,0.108
20,RRIRCRPPRLPRPRPRPLDAPRP,0.123
21,RRIRDRPPRLPRPRPRPTRTPRP,0.246
22,RRIRHRPPRLPRPRPRPIIWPRP,-0.145
23,RRIRNRPPRLPRPRPRPVPTPRP,0.288
24,RRIRDRPPRLPRPRPRPHSWPRP,0.05
25,RRIRCRPPRLPRPRPRPNTVPRP,-0.768

row,Sequence,shrunken log2 fold change
1,RRIRGRPPRLPRPRPRPEPCPRP,0.795
2,RRIRRRPPRLPRPRPRPEFFPRP,0.216
3,RRIRTRPPRLPRPRPRPVRKPRP,0.00119
4,RRIRQRPPRLPRPRPRPNLQPRP,0.0864
5,RRIRARPPRLPRPRPRPNSSPRP,0.184
6,RRIRYRPPRLPRPRPRPKGIPRP,-0.228
7,RRIRMRPPRLPRPRPRPQRRPRP,0.799
8,RRIRHRPPRLPRPRPRPKMKPRP,-0.232
9,RRIRGRPPRLPRPRPRPGHYPRP,0.00558
10,RRIRARPPRLPRPRPRPKAQPRP,1.26
11,RRIRHRPPRLPRPRPRPVSYPRP,-0.00133
12,RRIRWRPPRLPRPRPRPLVYPRP,0.114
13,RRIRKRPPRLPRPRPRPPTTPRP,0.452
14,RRIRIRPPRLPRPRPRPSEHPRP,-0.36
15,RRIRWRPPRLPRPRPRPRVWPRP,0.646
16,RRIRWRPPRLPRPRPRPNEGPRP,-0.0387
17,RRIRDRPPRLPRPRPRPGCDPRP,0.79
18,RRIRWRPPRLPRPRPRPRTNPRP,0.0699
19,RRIRARPPRLPRPRPRPGWDPRP,0.811
20,RRIRERPPRLPRPRPRPGQHPRP,-0.242
21,RRIRDRPPRLPRPRPRPTHWPRP,0.192
22,RRIRPRPPRLPRPRPRPQFGPRP,-0.0476
23,RRIRRRPPRLPRPRPRPPEYPRP,0.0513
24,RRIRSRPPRLPRPRPRPMSEPRP,0.0489
25,RRIRIRPPRLPRPRPRPIPRPRP,0.0123
